Our source for the Kd values is PMC7698151, “Evidence for Pentapeptide-Dependent and Independent CheB Methylesterases” (International Journal of Molecular Sciences, 2020).

Assay [1] addresses P. aeruginosa PAO1 CheB2 D55E mutant (Pseudomonas aeruginosa PAO1) (UniProt Q9I6V9). Kind of assay: ITC.
For assay [2], the target named is McpB (Aer2) pentapeptide (Pseudomonas aeruginosa). The note with it: cited from earlier work.
In assay [3] the target is Tar methylation site (Escherichia coli) (UniProt P07017). The note with it: cited from earlier work.
In assay [4] the target is Tar pentapeptide (Escherichia coli). The following applies: cited from earlier work.
For assay [5] the target is unchanged. The note with it: cited from earlier work. The source holds these as a separate data set.

Where two headings read alike, the source gives them in different places.

Sequence of CheR (P07364 whole entry): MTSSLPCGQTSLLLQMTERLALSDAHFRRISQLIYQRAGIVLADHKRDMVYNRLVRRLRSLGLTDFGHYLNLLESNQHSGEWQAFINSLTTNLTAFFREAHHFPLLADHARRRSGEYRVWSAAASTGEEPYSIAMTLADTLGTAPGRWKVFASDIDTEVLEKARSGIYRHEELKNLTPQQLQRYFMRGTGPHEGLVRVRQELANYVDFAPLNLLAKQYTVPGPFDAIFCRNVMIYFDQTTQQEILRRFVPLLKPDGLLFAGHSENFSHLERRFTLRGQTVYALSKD
Sequence of CheB (P07330 whole entry): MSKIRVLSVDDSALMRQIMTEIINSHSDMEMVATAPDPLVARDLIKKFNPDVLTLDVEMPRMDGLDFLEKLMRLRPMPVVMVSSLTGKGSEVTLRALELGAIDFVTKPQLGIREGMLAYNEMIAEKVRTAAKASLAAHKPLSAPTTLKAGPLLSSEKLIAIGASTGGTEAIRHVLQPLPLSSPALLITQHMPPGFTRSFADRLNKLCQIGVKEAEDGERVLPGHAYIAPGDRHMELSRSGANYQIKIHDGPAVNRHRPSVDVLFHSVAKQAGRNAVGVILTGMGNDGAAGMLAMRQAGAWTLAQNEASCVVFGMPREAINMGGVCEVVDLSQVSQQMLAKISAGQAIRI

With “[…] pentapeptide of the McpB (Aer2) chemoreceptor”, the Kd in assay [1] came out at 56 µM. In the case of CheR2 (from UniProt Q9I6V7), in assay [2], the Kd is 0.52 µM.

CheR (from UniProt P07364): the values for the Kd in assay [3] and in assay [4] were 150 µM and 2 µM, respectively. On to CheB (from UniProt P07330), for which, in assay [5], the dissociation constant (Kd) is 145 µM.
